Measurements: patent US20240239876A1 (GRIFOLS DIAGNOSTIC SOLUTIONS, published 2024)

Tests used:
HIV-1 p24 protein [1] = target: T1, HIV-1 p24 protein (HIV-1, UniProt P03349 135-365); assay: indirect ELISA on HIV-1 p24, OD 405 nm, antibody titrated 1:10 from 2 µg/mL (no unit beside the EC50; taken from the x axis, p24 Antibody [ng/mL])
T1 construct: also called HIV-1 p24 antigen; HIV-p24

HIV-1 p24 protein [2] = target: T1, HIV-1 p24 protein; assay: BLI, antibody captured on anti-mouse Fc biosensors, 1:1 model

| Binder | EC50 (HIV-1 p24 protein [1]) | Kd (HIV-1 p24 protein [2]) | koff (HIV-1 p24 protein [2]) | kon (HIV-1 p24 protein [2]) |
| --- | --- | --- | --- | --- |
| anti-HIV-1 antibody #A (antibody, V domains shown, recombinant, expressed in CHO cells; also called mAb A) VH: EVKLVESGGGLVKPGGSLQLSCVASGFTFSSYAMSWVRQTPEKGLEWVASITSGGNTYYPDSVKGRFTISRDNAGNILYLQMSSLRSEDTAMFYCAREVLSVPFAYWGQGTLVTVST VL: DIQMTQTTSSLSASLGDRVTINCRASQDISNYLHWYQQKPDGTVKLLIYYTSRLHSGVPSRFSGSGSGTDYSLTISNLEKEDIATYFCQQGNSFPWTFGGGTKVEIKR | 3.6 ng/mL | 0.2 nM | 5.9e-05 s⁻¹ | 241000 M⁻¹ s⁻¹ |
| anti-HIV-1 antibody #B (antibody, V domains shown, recombinant, expressed in CHO cells; also called mAb B) VH: EVQLVESGGGLVKPGGSLKLSCAASGFAFSSYDMSWVRQTPDKRLEWVAYITSGVGNLNYLDTVKGRFTISRDNAKNTLYLQMSSLRSEDTAMYFCLRPPSYFGSSYDAMDYWGRGTSVTVSS VL: DIVLTQSPATLSVTPGDSVSLSCRASQSISDNLHWYRQKSHESPRLLIKYSSQSISGIPSRFSGSGSGTDFTLSINSVETEDFGMYFCQQSNSWPFTFGSGTNLELKR | 76.7 ng/mL | < 0.00024 nM | < 1e-07 s⁻¹ | 408000 M⁻¹ s⁻¹ |
| anti-HIV-1 antibody #D (antibody, V domains shown, recombinant, expressed in CHO cells; also called mAb D; monoclonal antibody D) VH: QIQLQQSGPELVKPGASVKVSCKASGYAFTSYQLYWVKQSHGKSLEWIGYIDPYNGGTGYNQKFKGKATLTVDKSSSTAYMHLNSLTSEDSAVYYCASPRWLPAGDYWGQGTSVTVSS VL: DVVMTQTPLSLPVSLGDQASISCRSSQSLVNSDGNTFLQWLLQKPGQSPKLLIYKVSNRFSGVPDRFSGSGSGTDFTLRISRVEAEDLGVYFCSQSTHVPWTFGGGTKLEIKR | 8.41 ng/mL | < 0.00052 nM | < 1e-07 s⁻¹ | 194000 M⁻¹ s⁻¹ |
